Reference: US20240383994A1 (CHIA TAI TIANQING PHARMACEUTICAL GROUP, published 2024)
Residue numbers refer to the chain shown, from its start. Read-outs that look alike come from different tables or passages of the source.

T1: CynoCD40-His protein (Acro, Cat. No.: CD0-C52H6) (cynomolgus monkey, UniProt P25942 21-193 (human entry))
T1 construct: Bought protein; also called cynomolgus monkey CD40 antigen; not shown: His tag
T1 chain: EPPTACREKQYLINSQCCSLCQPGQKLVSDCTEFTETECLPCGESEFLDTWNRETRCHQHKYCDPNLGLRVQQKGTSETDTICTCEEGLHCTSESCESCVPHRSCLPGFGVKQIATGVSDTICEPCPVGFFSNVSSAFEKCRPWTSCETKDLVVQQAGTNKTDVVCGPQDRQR

B1: Iscalimab (CFZ533) (antibody, human IgG1, kappa, N297A, V domains shown)
VH: QVQLVESGGGVVQPGRSLRLSCAASGFTFSSYGMHWVRQAPGKGLEWVAVISYEESNRYHADSVKGRFTISRDNSKITLYLQMNSLRTEDTAVYYCARDGGIAAPGPDYWGQGTLVTVSS
VL: DIVMTQSPLSLTVTPGEPASISCRSSQSLLYSNGYNYLDWYLQKPGQSPQVLISLGSNRASGVPDRFSGSGSGTDFTLKISRVEAEDVGVYYCMQARQTPFTFGPGTKVDIRR
notes: also called BM; benchmark
B2: Chi-A01 (antibody, human IgG4 S228P, kappa, V domains shown)
VH: QVQLKESGPGLVAPSQSLSITCTVSGFSLPTSGVHWVRQPPGKGLEWLGVIWAGGDTNYNSALMSRLSISKDNSKSQVFLKMNSLQKDDTAIYYCLGHGHFDVWGAGTTVTVSS
VL: DVVMTQTPLSLPVSLGDQASISCRSSQSLVHSSGNTYLQWYLQKPGQSPGLLIYKVSNRFSGVPDRFSGSGSGTDFTLKISRVEAEDLGVYFCSQTTHVPWTFGGGTKLEIKR
notes: also called chimeric A01
B3: Chi-A02 (antibody, human IgG4 S228P, kappa, V domains shown)
VH: B2 VH with P30T, T31S, N58S, K87T, I92M, F101L
VL: B2 VL with Q39H
notes: also called chimeric A02
B4: Chi-A03 (antibody, human IgG4 S228P, kappa, V domains shown)
VH: DVQLQESGPDRVKPSQSLSLTCTVTGYSITSDYSWHWIRQFPGNKLEWMGYIYSSGHTYYNPSLKSRISFTRDTSKNQFFLQLNSVTTEDTATYYCAIYYYGRSYFDNWGRGTTLTVSS
VL: QIVLTQSPAIMSASPGEKVTLTCSASSSVNYMHWYQQKSGTSPKRWIYDTSKLASGVPARFSGSGSGTSYSLTISSMEAEDAATYYCQQWSSNPLTFGAGTKLELKR
notes: also called chimeric A03

Tests used:
[1] = molecular target: T2, human CD40 (hCD40), full length, on cells (human, UniProt P25942 21-277); experiment: cell-based or functional assay
[2] = molecular target: T2, human CD40 (hCD40), full length, on …; experiment: flow cytometry (MFI) on 293T-hCD40-NFκB cells, PE anti-human IgG detection
[3] = molecular target: T2, human CD40 (hCD40), full length, on …; experiment: flow cytometry (MFI) on CHO-K1-hCD40 cells, PE anti-human IgG detection
[4] = molecular target: T3, hCD40-His protein (Acro, Cat. No.: CD0-H5228) (human, UniProt P25942 21-193); experiment: BLI (Fortebio Octet RED96e), antibody captured on AHC sensor, antigen 1.56-100 nM, 1:1 model
T3 construct: Bought protein; also called human CD40 antigen; not shown: His tag
Description: (§1) The affinity of humanized anti-CD40 antibodies to an hCD40-His protein (Acro, Cat. No.: CD0-H5228) and a CynoCD40-His protein (Acro, Cat. No.: CD0-C52H6) was detected by a ForteBio molecular interaction system. Firstly, an AHC biosensor (Fortebio, Cat. No.: 18-5060) was activated, and then immersed in an anti-CD40 antibody solution at a final concentration of 5 μg/mL to capture the antibodies. Serially 2-fold diluted hCD40-His protein and CynoCD40-His protein in a final concentration range of 1.56 nM-100 nM were then […] the AHC biosensor. The response signals were detected in real time on a Fortebio molecular interaction system (Fortebio Octet RED96e) to give association and dissociation curves. After the completion of dissociation in each cycle, the AHC biosensor was regenerated for the next capture; the procedure was repeated until the affinity of the different antibodies for CD40 was determined. The resulting data were analyzed by Fortebio Data Analysis 11.0 software using a 1:1 (Langmuir) binding model to determine the Kₐ (Kₒₙ) and Kd (Kdis) values, and the dissociation constant KD was calculated by KD=Kd/Kₐ. See www.fortebio.com for more detailed detection procedures and related information.

[5] = molecular target: T1, CynoCD40-His protein (Acro, Cat. No.: …); experiment: as above
Description: as §1

[6] = molecular target: T2, human CD40 (hCD40), full length, on …; experiment: cell-based or functional assay; remark: listed apart in the source
[7] = molecular target: T2, human CD40 (hCD40), full length, on …; experiment: cell-based or functional assay; remark: listed apart in the source
[8] = molecular target: T2, human CD40 (hCD40), full length, on …; experiment: cell-based or functional assay; remark: listed apart in the source
hCD40-mFc = molecular target: T4, hCD40-mFc (human); experiment: flow cytometry, blocking of hCD40-mFc (2 µg/mL) binding to CHO-K1-hCD40L cells
T4 construct: Prepared in-house in CHO cells; also called human CD40 recombinant protein containing a mouse antibody heavy chain Fc; Human CD40-mFc
Description: A CHO-K1-hCD40L cell suspension and a CHO-K1-CynoCD40L cell suspension at a cell concentration of 3×10⁵ cells/mL were separately added into a 96-well U-bottom plate at 100 μL/well. An hCD40-mFc protein at a final concentration of 2 μg/mL (prepared in-house, SEQ ID NO: 64) or a cynoCD40-mFc protein at a final concentration of 2 μg/mL (prepared in-house, SEQ ID NO: 65) was added correspondingly, before serially 2-fold diluted anti-CD40 antibodies in a final concentration range of 312.5 ng/ml-40000 ng/ml were added. The mixture was mixed well, and then incubated at 4° C. for 1 h. The cells were washed with PBS containing 2% of FBS, and then a PE-conjugated goat anti-mouse IgG (H+L) antibody (Abcam, Cat. No.: ab97041) diluted at a volume ratio of 1:500 was added, and the mixture was incubated at 4° C. for 0.5 h. The cells were washed with PBS containing 2% of […], and then resuspended in PBS containing 2% of FBS. The fluorescence signals were detected on a flow cytometer (Sartorius IQue3). The activity of anti-CD40 antibodies to block the binding of CHO-K1-hCD40L cells to an hCD40-mFc protein and CHO-K1-cynoCD40L cells to a cynoCD40-mFc protein was analyzed by the mean fluorescence intensity (MFI) of staining, and the IC₅₀ value was calculated by GraphPad Prism software.

EC50 (read off the curve) [2]	EC50 [3]	Kd [4]	koff [4]	kon [4]	Kd [5]	koff [5]	kon [5]	IC50 (read off the curve); NF-κB luciferase reporter (RLU), 293T-hCD40-NFκB cells co-cultured 1:1 with CHO-K1-hCD40L cells [6]	IC50, inhibition of Ramos cell apoptosis induced by CD40L and IL-4 [7]	Inhibition, % of Ramos cell apoptosis at 0.0128 ng/mL [7]	Inhibition, % of Ramos cell apoptosis at 0.064 ng/mL [7]	IC50, inhibition of Ramos cell apoptosis induced by CD40L and IL-4 [8]	Inhibition, % of Ramos cell apoptosis at 0.064 ng/L (so in the source) [8]	Inhibition, % of Ramos cell apoptosis at 0.32 ng/L (so in the source) [8]	Inhibition, % of Ramos cell apoptosis at 1.6 ng/L (so in the source) [8]	Inhibition, % of Ramos cell apoptosis at 8 ng/L (so in the source) [8]	Inhibition, % of Ramos cell apoptosis at 40 ng/L (so in the source) [8]	Inhibition, % of Ramos cell apoptosis at 200 ng/L (so in the source) [8]	Inhibition, % of Ramos cell apoptosis at 1000 ng/L (so in the source) [8]	also measured	Binder
~10 ng/mL	0.36 nM	0.118 nM	5.61e-05 s⁻¹	474000 M⁻¹ s⁻¹	0.0559 nM	4.3e-05 s⁻¹	769000 M⁻¹ s⁻¹	~8 ng/mL	0.0247 nM	-26%	-24%	0.0183 nM	4%	12%	41%	85%	97%	99%	98%	MFI value (CD95 on Ramos cells), Fc crosslinking with anti-human IgG Fcγ antibody, 1 µg/mL antibody [1]: 12500 MFI; MFI value (CD95 on Ramos cells), Fc crosslinking with anti-human IgG Fcγ antibody, 10 µg/mL antibody [1]: 12100 MFI; Inhibition, % of Ramos cell apoptosis at 0.32 ng/mL [7]: -10%; Inhibition, % of Ramos cell apoptosis at 1.6 ng/mL [7]: 5%; Inhibition, % of Ramos cell apoptosis at 8 ng/mL [7]: 72%; Inhibition, % of Ramos cell apoptosis at 40 ng/mL [7]: 98%; Inhibition, % of Ramos cell apoptosis at 200 ng/mL [7]: 100%; Inhibition, % of Ramos cell apoptosis at 1000 ng/mL [7]: 101%; IC50 (hCD40-mFc): 20.6 nM	B1
~2 ng/mL	0.43 nM	0.153 nM	0.000283 s⁻¹	1.85e+06 M⁻¹ s⁻¹	0.162 nM	0.000276 s⁻¹	1.7e+06 M⁻¹ s⁻¹	~0.6 ng/mL	0.00413 nM	11%	10%	0.00508 nM	0%	17%	82%	96%	95%	96%	95%	Inhibition, % of Ramos cell apoptosis at 0.32 ng/mL [7]: 39%; Inhibition, % of Ramos cell apoptosis at 1.6 ng/mL [7]: 79%; Inhibition, % of Ramos cell apoptosis at 8 ng/mL [7]: 101%; Inhibition, % of Ramos cell apoptosis at 40 ng/mL [7]: 99%; Inhibition, % of Ramos cell apoptosis at 200 ng/mL [7]: 101%; Inhibition, % of Ramos cell apoptosis at 1000 ng/mL [7]: 100%; IC50 (hCD40-mFc): 21.3 nM	B2
	0.39 nM											0.00499 nM	5%	20%	85%	98%	97%	97%	94%		B3
	1.36 nM	2.51 nM	0.00147 s⁻¹	586000 M⁻¹ s⁻¹								0.134 nM	-8%	-9%	-10%	18%	66%	90%	98%		B4
